This is an account of results in paper PMC10457330, “Structural basis for the allosteric modulation of rhodopsin by nanobody binding to its extracellular domain” (Nature Communications, 2023).

Assay [1] deals with photoactivated bovine rhodopsin (Bos taurus (native, rod outer segments), UniProt P02699, all-trans-retinylidene chromophore after photoisomerization; N-linked glycans at Asn2 and Asn15).
Assay [2] deals with ground-state bovine rhodopsin (native, from rod outer segments) (bovine, UniProt P02699, 11-cis-retinylidene chromophore (Schiff base at Lys296); N-linked glycans at Asn2 and Asn15).
Chain of ground-state bovine rhodopsin (native, from rod outer segments) (P02699 whole entry): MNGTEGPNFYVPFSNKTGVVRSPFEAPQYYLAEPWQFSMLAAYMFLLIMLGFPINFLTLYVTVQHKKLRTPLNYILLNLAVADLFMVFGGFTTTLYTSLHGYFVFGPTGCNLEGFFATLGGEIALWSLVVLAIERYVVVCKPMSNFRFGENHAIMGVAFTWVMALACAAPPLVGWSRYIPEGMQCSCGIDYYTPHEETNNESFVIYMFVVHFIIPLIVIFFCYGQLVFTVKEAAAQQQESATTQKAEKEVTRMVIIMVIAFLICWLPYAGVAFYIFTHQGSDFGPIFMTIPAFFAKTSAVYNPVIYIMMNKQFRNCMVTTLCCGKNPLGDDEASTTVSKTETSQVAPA

Chain of photoactivated bovine rhodopsin (P02699 whole entry): as above

B1: Nb12 (VHH)
VHH: QVQLVESGGGLVQPGGSLRLSCAASGFTFNRYVMNWVRQAPGKGLEWVSGISRDGSYTDYADSVKGRFTISRDNAKDTLYLQMNSLKPEDTAVYYCSKYNSVVTTPPGQGTQVTVSS
Take B1: the binding result in assay [1] and in assay [2] was “binds” in each case.

B2: Nb22 (VHH)
VHH: QVQLVESGGGLVQAGGSLRLSCTASGNSFTFYTMGWYRQAPGKQRELVASITHRDSTNYADSMKDRFTISRDNSKNTVYLQMNSLKAEDTAVYYCNLHGRTRLLGREYDYWGQGTQVTVSS
As to B2, the binding result in assay [1] and in assay [2] was “binds” throughout.
